Biological target: T1, Ad5 hexon, on wild-type human adenovirus type 5 virions (human adenovirus type 5, UniProt P04133 2-952)
T1 chain: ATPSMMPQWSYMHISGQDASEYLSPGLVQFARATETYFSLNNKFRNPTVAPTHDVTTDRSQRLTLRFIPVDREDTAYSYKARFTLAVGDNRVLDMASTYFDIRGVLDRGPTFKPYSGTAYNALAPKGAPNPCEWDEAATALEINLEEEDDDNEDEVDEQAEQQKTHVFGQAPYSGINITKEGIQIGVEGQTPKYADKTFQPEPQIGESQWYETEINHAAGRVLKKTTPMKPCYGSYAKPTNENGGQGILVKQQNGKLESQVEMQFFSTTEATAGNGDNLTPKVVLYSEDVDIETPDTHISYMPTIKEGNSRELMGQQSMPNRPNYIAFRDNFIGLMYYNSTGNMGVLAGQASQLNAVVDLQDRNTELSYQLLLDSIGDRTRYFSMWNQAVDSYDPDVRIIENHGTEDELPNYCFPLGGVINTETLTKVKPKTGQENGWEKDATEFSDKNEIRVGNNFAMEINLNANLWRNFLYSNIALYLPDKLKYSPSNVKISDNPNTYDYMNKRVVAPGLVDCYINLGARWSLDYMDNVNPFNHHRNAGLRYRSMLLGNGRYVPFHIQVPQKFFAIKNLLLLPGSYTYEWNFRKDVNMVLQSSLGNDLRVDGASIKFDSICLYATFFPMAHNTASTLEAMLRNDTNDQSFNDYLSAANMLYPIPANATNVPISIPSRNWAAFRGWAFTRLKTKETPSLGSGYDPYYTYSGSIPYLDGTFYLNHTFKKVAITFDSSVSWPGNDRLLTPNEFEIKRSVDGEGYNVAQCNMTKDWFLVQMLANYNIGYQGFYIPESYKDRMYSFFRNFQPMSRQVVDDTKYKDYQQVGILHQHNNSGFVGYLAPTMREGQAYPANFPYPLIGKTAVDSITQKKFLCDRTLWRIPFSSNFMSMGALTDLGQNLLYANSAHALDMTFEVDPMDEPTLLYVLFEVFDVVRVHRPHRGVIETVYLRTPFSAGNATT
Test: SPR

B1: mouse coagulation factor X (natural protein)
chain 1: ANSFFEEFKKGNLERECMEEICSYEEVREIFEDDEKTKEYWTKYKDGDQCESSPCQNQGACRDGIGGYTCTCSEGFEGKNCELFVRKLCRLDNGDCDQFCREEQNSVVCSCASGYFLGNDGKSCISTAPFPCGKITTGRR
chain 2: VALNTSDSELDLEDALLDEDFLSPTENPIELLNLNETQPERSSDDLVRIVGGRECKDGECPWQALLINEDNEGFCGGTILNEFYILTAAHCLHQARRFKVRVGDRNTEKEEGNEMVHEVDVVIKHNKFQRDTYDYDIAVLRLKTPITFRMNVAPACLPQKDWAESTLMTQKTGIVSGFGRTHEKGRQSNILKMLEVPYVDRNTCKLSTSFSITQNMFCAGYEAKLEDACQGDSGGPHVTRFKNTYYVTGIVSWGEGCARKGKYGIYTKVTTFLKWIDRSMKARVGPTAETPRTAGPPN
modifications: gamma-carboxylated glutamate residues in the Gla domain
Kd: 0.35 nM
